Results from paper PMC6378967.

B1: angiotensinogen (AGT): N14Q (protein)
parent chain: MAPAGVSLRATILCLLAWAGLAAGDRVYIHPFHLVIHNESTCEQLAKANAGKPKDPTFIPAPIQAKTSPVDEKALQDQLVLVAAKLDTEDKLRAAMVGMLANFLGFRIYGMHSELWGVVHGATVLSPTAVFGTLASLYLGALDHTADRLQAILGVPWKDKNCTSRLDAHKVLSALQAVQGLLVAQGRADSQAQLLLSTVVGVFTAPGLHLKQPFVQGLALYTPVVLPRSLDFTELDVAAEKIDRFMQAVTGWKTGCSLMGASVDSTLAFNTYVHFQGKMKGFSLLAEPQEFWVDNSTSVSVPMLSGMGTFQHWSDIQDNFSVTQVPFTESACLLLIQPHYASDLDKVEGLTFQQNSLNWMKKLSPRTIHLTMPQLVLQGSYDLQDLLAQAELPAILHTELNLQKLSNDRIRVGEVLNSIFFELEADEREPTESTQQLNKPEVLEVTLNRPFLFAVYDQSATALHFLGRVANPLSTA
B2: angiotensinogen (AGT): N4 (protein)
parent chain: MAPAGVSLRATILCLLAWAGLAAGDRVYIHPFHLVIHNESTCEQLAKANAGKPKDPTFIPAPIQAKTSPVDEKALQDQLVLVAAKLDTEDKLRAAMVGMLANFLGFRIYGMHSELWGVVHGATVLSPTAVFGTLASLYLGALDHTADRLQAILGVPWKDKNCTSRLDAHKVLSALQAVQGLLVAQGRADSQAQLLLSTVVGVFTAPGLHLKQPFVQGLALYTPVVLPRSLDFTELDVAAEKIDRFMQAVTGWKTGCSLMGASVDSTLAFNTYVHFQGKMKGFSLLAEPQEFWVDNSTSVSVPMLSGMGTFQHWSDIQDNFSVTQVPFTESACLLLIQPHYASDLDKVEGLTFQQNSLNWMKKLSPRTIHLTMPQLVLQGSYDLQDLLAQAELPAILHTELNLQKLSNDRIRVGEVLNSIFFELEADEREPTESTQQLNKPEVLEVTLNRPFLFAVYDQSATALHFLGRVANPLSTA

Test: steady-state kinetics, released Ang I immunoassay
Conditions: glycan lost; control: fully glycosylated WT AGT

Row | Protein | other: proteolytic processing, kcat_Km
1 | B1 | increases, 0.64 ± 0.03 vs 0.25 ± 0.01, 0.64 ± 0.03 (252%)
2 | B2 | increases, 0.65 ± 0.08 vs 0.25 ± 0.01, 0.65 ± 0.08 (255%)
